Experimental data reported in patent US20220127365A1 (DREN BIO, published 2022).

T1: human CD94 (human, UniProt Q13241 1-179)
T1 sequence (looked up): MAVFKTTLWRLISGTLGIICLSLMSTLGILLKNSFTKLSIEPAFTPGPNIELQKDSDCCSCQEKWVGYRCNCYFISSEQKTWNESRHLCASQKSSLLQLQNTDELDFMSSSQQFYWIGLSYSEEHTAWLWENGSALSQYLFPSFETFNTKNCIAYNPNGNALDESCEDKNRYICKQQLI


Key:
[1] = target: T1, human CD94; experiment: cell-based or functional assay
[2] = target: T1, human CD94; experiment: HLA-E tetramer blocking on healthy-donor PBMCs, flow cytometry; competitor HLA-E tetramer
Protocol: Healthy donor PBMCs were seeded in 96-well plates at a density of 100,000 cells per well, incubated with human Fc block (Biolegend) and cell viability dye (Thermo Fisher) for 30 minutes on ice and protected from light. The cells were washed once with FACS buffer (PBS with 2% IgG low FBS). anti-CD94 antibodies at EC80 concentrations were incubated with cells for 30 minutes on ice and protected from light. After incubation with the anti-CD94 antibodies, the cells were washed and incubated with HLA-E tetramer PE (Creative Biolabs), anti-CD3 pacific blue-labelled, and anti-CD56 FITC-labelled antibodies (Biolegend) for 30 minutes on ice and protected from light. The cells then received a final wash in FACS buffer before quantification on the Cytoflex (Beckman Coulter). All data acquisition and fluorescence compensation were performed using CytoFlex (Beckman Coulter, Atlanta, Ga.). Data analysis was performed using FlowJo software. NK cells were identified through gating on lymphocytes on the forward and side scatter, followed by doublet and dead cell exclusion, and gated on the CD3−CD56+ population. HLA-E expression was then quantified on the CD3−CD56+NK cell population. Percent blocking was calculated as 100−((percent HLA-E positive for anti-CD94 antibody)/(percent HLA-E positive for isotype)*100).
Healthy donor PBMCs were incubated with anti-CD94 antibodies. PE labeled HLA-E tetramer was then incubated with cells and antibody mixture and detected by flow cytometry.
Percent blocking was calculated as 100−((percent HLA-E positive for anti-CD94 antibody)/(percent HLA-E positive for isotype)*100). If an antibody blocked more than 20% of HLA-E binding, it was considered a ligand-blocking antibody.

[3] = target: T1, human CD94; experiment: flow cytometry titration (100 nM to 0.046 nM) on healthy-donor PBMCs, CD3-CD56bright NK cells; column 'Affinity on human NK cells (nM)'

Binder	IC50 of CLPD-NK leukemic cell depletion, ADCC assay with CLPD-NK patient PBMCs [1] [µg/mL]	IC50 of NK cell depletion, ADCC assay with healthy donor PBMCs [1] [µg/mL]	percent HLA-E blocking [2] [%]	EC50 [3] [nM]
18H3-KIF (antibody, V domains shown) VH: EVQLVQSGAEVKKPGESLKISCKGSGYRFTSYWIGWVRQMPGKGLEWMGIIYPGDSDTRYSPSFQGQVIISADKSITTAFLQWSSLKASDTAMYYCARPFDYGGSPGYFDYWGQGTLVTVSS VL: DIQMTQSPSTLSASVGDRVTITCRASQSIRSWLAWYQQKPGKAPKLLIYKASSLESGVPSRFSGSGSGTEFTLTISSLQPDDFATYYCQQYNTFWTFGQGTKVEIK	0.059	0.02		
anti-CD94 antibody ATX-124 (antibody, human IgG1, V domains shown) VH: QVQLVQSGAEVKKPGASVKVSCKASGYTFTSYGISWVRQAPGQGLEWMGWISAYNGNTNYAQKLQGRVTMTTDTSTSTAYMEVRSLRSDDTAVYYCARDRGRFGELFFDHWGQGTLVTVSS VL: DIVMTQSPSSVSASVGDRVTITCRASQGISNYLAWYQQKPGKAPKLLIYAASSLQSGVPSRFSGSGSGTDFTLTISSLQPEDFATYYCLQHNSYPFTFGPGTKVDIK			18	10
anti-CD94 antibody ATX-122 (antibody, V domains shown, Detected with an anti-human secondary antibody) VH: QVQLVQSGAEVKKPGASLKVSCKASGYTFTSYGVSWVRQAPGQGLEWVGWISPYNGNTNYAHNLQGRVAMTTDTSTSTAYMELRSLRSDDMAVYYCARDRGRFGELFFDYWGQGTLVTVSS VL: DIVMTQSPSSVSASVGDRVTITCRASQGISNYLAWYQQKPGKAPKLLIYAASSLQSGVPSRFSGSGSGTDFTLTISSLQPEDFATYYCLQHNSYPFTFGPGTKVDIK			0	27
anti-CD94 antibody ATX-123 (antibody, human IgG1, V domains shown) VH: QVQLVQSGAEVKKPGASVKVSCKASGYTFTSYGISWVRQAPGQGLEWMGWISAYNGNTNYAQKFQGRVTMTTDTSTNTAYMELRSLRSDDTAVYYCARDRGRFGELLSDYWGQGTLVTVSS VL: DIVMTQSPSSVSASVGDRVTITCRASQGISNYLAWYQQKPGKAPKLLIYAASSLQSGVPSRFSGSGSGTDFTLTISSLQPEDFATYYCLQHNSYPFTFGPGTKVDIK			39	1.12
anti-CD94 antibody ATX-127 (antibody, human IgG1, V domains shown) VH: QVQLQQSGPGLVKPSGTLSLTCAVSGGSISSRYWWTWVRQPPGKGLEWIGEIYHSGTTNYNPSLESRVTISVDKSKNQFSLKVSSVTAADTAVYYCARSPNWGYYYYYMDVWGKGTTVTVSS VL: EIVMTQSPATLSVSPGERATLSCRASQSVSSSYLAWYQQKPGQAPRLLIYGASSRATGIPDRFSGSGSGTDFTLTISRLESEDFAVYYCQQYGRSLTFGGGTKVEIK			77	0.31
anti-CD94 antibody ATX-128 (antibody, V domains shown) VH: QVQLQESGGGLVQPGGSLKLSCAASGFTFSGSTIQWVRQASGKGLEWVGRIRSKANSYATASAASVKGRFTISRDDSKNMAYLQMNSLKTEDTAVYYCTREGLGYYNVGYYYFYMDVWGKGTTVTVSS VL: not shown			10	0.32
anti-CD94 antibody ATX-129 (antibody, human IgG1, V domains shown) VH: EVQLVQSGGGLVQPGGSLRLSCAASGFTFSSYWMSWVRQAPGKGLEWVANIKQDGSAKYYVDSVKGRFTISRDNAKNSLYLQMNSLRAEDTAVYYCARGYYFDYWGQGTLVTVSS VL: EIVLTQSPSTLSASVGDRVTITCRVSQGISSYLNWYRQKPGKVPKLLIYAASSLQSGVPSRFSGSGSGTDFTLTISSLQPEDFATYYCQQSYSTPITFGQGTRLEIK			96	2.8
